Stoichiometry N data for 1 substance are collected here from publication PMC11594144.

For assay [1], the target named is Vip3Aa64 protoxin, wild type (Bacillus thuringiensis). Nature of the assay: mass photometry.
Assay [2] shares this target. Nature of the assay: AUC.

Broadly, the stoichiometry N is a count of units in the complex or per binding partner. In the case of “Vip3Aa64 protoxin, wild type (natural protein)”, the stoichiometry N in assay [1] and in assay [2] was 4 each time.
